PMC12183636, “Ion channel function of polycystin‐2/polycystin‐1 heteromer revealed by structure‐guided mutagenesis” (Febs Letters, 2025)

Target: T1, polycystin-2 L677A N681A, HA-tagged (human, UniProt Q13563 1-968, L677A | N681A)
T1 sequence (looked up): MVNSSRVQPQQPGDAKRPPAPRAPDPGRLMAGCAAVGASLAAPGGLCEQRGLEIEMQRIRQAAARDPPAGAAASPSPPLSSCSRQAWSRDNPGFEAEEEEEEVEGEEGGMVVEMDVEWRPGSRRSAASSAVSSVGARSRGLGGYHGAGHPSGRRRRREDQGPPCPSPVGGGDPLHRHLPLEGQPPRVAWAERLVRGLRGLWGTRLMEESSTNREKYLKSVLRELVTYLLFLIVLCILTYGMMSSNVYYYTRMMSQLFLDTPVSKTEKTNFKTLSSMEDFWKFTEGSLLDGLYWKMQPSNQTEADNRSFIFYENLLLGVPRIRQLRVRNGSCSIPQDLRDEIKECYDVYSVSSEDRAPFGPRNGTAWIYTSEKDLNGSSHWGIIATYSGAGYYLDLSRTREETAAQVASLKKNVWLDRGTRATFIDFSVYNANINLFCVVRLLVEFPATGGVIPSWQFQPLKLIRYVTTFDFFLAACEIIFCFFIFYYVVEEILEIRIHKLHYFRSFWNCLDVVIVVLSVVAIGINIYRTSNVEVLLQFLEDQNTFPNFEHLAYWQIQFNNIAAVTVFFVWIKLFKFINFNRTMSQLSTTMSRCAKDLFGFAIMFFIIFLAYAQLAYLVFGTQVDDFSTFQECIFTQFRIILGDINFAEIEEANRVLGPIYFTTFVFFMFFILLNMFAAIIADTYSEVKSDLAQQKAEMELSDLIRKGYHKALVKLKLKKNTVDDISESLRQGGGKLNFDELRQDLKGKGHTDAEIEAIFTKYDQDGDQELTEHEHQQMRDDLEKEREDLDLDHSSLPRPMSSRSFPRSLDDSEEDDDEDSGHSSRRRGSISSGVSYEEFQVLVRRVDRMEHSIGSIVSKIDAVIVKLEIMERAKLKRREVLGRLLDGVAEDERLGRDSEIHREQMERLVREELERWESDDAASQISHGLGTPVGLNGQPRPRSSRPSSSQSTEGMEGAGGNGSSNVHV
Assay: cell-based or functional assay

B1: C-terminal fragment of polycystin-1 R4100A R4107A H4111A (PC1-CTF AAA), V5-tagged (domain or fragment, human, UniProt P98161 3049-4303, looked up)
chain: TAFGASLFVPPSHVRFVFPEPTADVNYIVMLTCAVCLVTYMVMAAILHKLDQLDASRGRAIPFCGQRGRFKYEILVKTGWGRGSGTTAHVGIMLYGVDSRSGHRHLDGDRAFHRNSLDIFRIATPHSLGSVWKIRVWHDNKGLSPAWFLQHVIVRDLQTARSAFFLVNDWLSVETEANGGLVEKEVLAASDAALLRFRRLLVAELQRGFFDKHIWLSIWDRPPRSRFTRIQRATCCVLLICLFLGANAVWYGAVGDSAYSTGHVSRLSPLSVDTVAVGLVSSVVVYPVYLAILFLFRMSRSKVAGSPSPTPAGQQVLDIDSCLDSSVLDSSFLTFSGLHAEQAFVGQMKSDLFLDDSKSLVCWPSGEGTLSWPDLLSDPSIVGSNLRQLARGQAGHGLGPEEDGFSLASPYSPAKSFSASDEDLIQQVLAEGVSSPAPTQDTHMETDLLSSLSSTPGEKTETLALQRLGELGPPSPGLNWEQPQAARLSRTGLVEGLRKRLLPAWCASLAHGLSLLLVAVAVAVSGWVGASFPPGVSVAWLLSSSASFLASFLGWEPLKVLLEALYFSLVAKRLHPDEDDTLVESPAVTPVSARVPRVRPPHGFALFLAKEEARKVKRLHGMLRSLLVYMLFLLVTLLASYGDASCHGHAYRLQSAIKQELHSRAFLAITRSEELWPWMAHVLLPYVHGNQSSPELGPPRLRQVRLQEALYPDPPGPRVHTCSAAGGFSTSDYDVGWESPHNGSGTWAYSAPDLLGAWSWGSCAVYDSGGYVQELGLSLEESRDRLRFLQLHNWLDNRSRAVFLELTRYSPAVGLHAAVTLRLEFPAAGRALAALSVRPFALRRLSAGLSLPLLTSVCLLLFAVHFAVAEARTWHREGRWRVLRLGAWARWLLVALTAATALVRLAQLGAADRQWTRFVRGRPRRFTSFDQVAQLSSAARGLAASLLFLLLVKAAQQLRFVRQWSVFGKTLCRALPELLGVTLGLVVLGVAYAQLAILLVSSCVDSLWSVAQALLVLCPGTGLSTLCPAESWHLSPLLCVGLWALRLWGALALGAVILAWRYAALRGELYRPAWEPQDYEMVELFLRRLRLWMGLSKVKEFRHKVRFEGMEPLPSRSSRGSKVSPDVPPPSAGSDASHPSTSSSQLDGLSVSLGRLGTRCEPEPSRLQAVFEALLTQFDRLNQATEDVYQLEQQLHSLQGRRSSRAPAGSSRGPSPGLRPALPSRLARASRGVDLATGPSRTPLRAKNKVHPSST
PC2/PC1 molar ratio of injected cRNA (2.5 pmol PC2 AA, 0.77 pmol PC1-CTF AAA) at which the shift of the reversal potential saturated: 3.2 PC2 per PC1 (molar ratio of cRNA)
